{"source": "patent US20200331999", "about": "(published 2020)", "binders": {"B1": {"name": "hu1217-2-2/IgG1 (antibody, V domains shown)", "VH": "EVQLVESGGGLVQPGGSLRLSCAASGFTFSDYYMYWVRQAPGKGLEWVAYITKGGGSTYYPDSVKGRFTISRDNAKNTLYLQMNSLRAEDTAVYYCARQTNYDFTMDYWGQGTLVTVSS", "VL": "EIVMTQSPATLSVSPGERATLSCKASQDVGTSVAWYQQKPGQAPRLLIYWASARHTGIPARFSGSGSGTEFTLTISSLQSEDFAVYYCQQYSSYPLTFGGGTKVEIK", "modifications": "wild-type human IgG1 Fc"}}, "key": {"human TIGIT ECD [1]": {"target": "T1, human TIGIT ECD (human)", "T1 chain": "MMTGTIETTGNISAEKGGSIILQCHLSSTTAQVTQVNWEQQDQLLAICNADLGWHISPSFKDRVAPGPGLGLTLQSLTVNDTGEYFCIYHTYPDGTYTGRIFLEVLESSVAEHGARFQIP", "experiment": "SPR, pH 7.4"}, "human TIGIT ECD [2]": {"target": "T1, human TIGIT ECD", "experiment": "SPR, pH 6.0"}, "human TIGIT-Fc [3]": {"target": "T2, human TIGIT-Fc (human)", "T2 chain": "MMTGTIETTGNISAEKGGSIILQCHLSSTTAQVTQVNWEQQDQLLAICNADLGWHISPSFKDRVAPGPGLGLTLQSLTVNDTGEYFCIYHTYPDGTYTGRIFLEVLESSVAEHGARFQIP", "experiment": "competition, FACS, blocking binding to PVR-L2 on HEK293"}, "human TIGIT-Fc [4]": {"target": "T2, human TIGIT-Fc", "experiment": "competition, FACS, blocking binding to PVR on HEK293"}}, "data": [{"binder": "B1", "values": [{"measurement": "Kd", "setting": "human TIGIT ECD [1]", "result": 0.219, "unit": "nM"}, {"measurement": "Kd", "setting": "human TIGIT ECD [2]", "result": 0.0299, "unit": "nM"}, {"measurement": "IC50", "setting": "human TIGIT-Fc [3]", "result": 0.25, "unit": "µg/mL"}, {"measurement": "IC50", "setting": "human TIGIT-Fc [4]", "result": 0.64, "unit": "µg/mL"}]}]}
